T1: FasL1 FRET peptide (Aedans)EKELAELRESTS(Dabcyl)K-amide
T1 sequence: KELAELRESTS

T2: FasL1 FRET peptide (Aedans)…(Dabcyl)K-amide
T2 chain: KELAELRESTS

T3: Peptide D7 (Aedans)ERNITEGEARGSVIL(Dabcyl)K-amide (not fully specified)
T3 chain: ERNITEGEARGSVIL

T4: 29CD23 FRET peptide (Aedans)…(Dabcyl)K-amide
T4 chain: ADLSSFKSQEL

B1: truncated recombinant human Aggrecanase-1 (pro- and protease domains with C-terminal FLAG epitope) (protein)
chain: FASLSRFVETLVVADDKMAAFHGAGLKRYLLTVMAAAAKAFKHPSIRNPVSLVVTRLVILGSGEEGPQVGPSAAQTLRSFCAWQRGLNTPEDSDPDHFDTAILFTRQDLCGVSTCDTLGMADVGTVCDPARSCAIVEDDGLQSAFTAAHELGHVFNMLHDNSKPCISLNGPLSTSRHVMAPVMAHVDPEEPWSPCSARFITDFLDNGYGHCLLDKPEAPLHLPVTGDYKDDDDKG
B2: truncated recombinant human Aggrecanase-2 (pro- and protease domains with C-terminal FLAG epitope) (protein)
chain: SISRARQVELLLVADASMARLYGRGLQHYLLTLASIANRLYSHASIENHIRLAVVKVVVLGDKDKSLEVSKNAATTLKNFCKWQHQHNQLGDDHEEHYDAAILFTREDLCGHHSCDTLGMADVGTICSPERSCAVIEDDGLHAAFTVAHEIGHLLGLSHDDSKFCEETFGSTEDKRLMSSILTSIDASKPWSKCTSATITEFLDDGHGNCLLDLPRKQILGGDYKDDDDKG

Columns and labels:
[1] = system: T1, FasL1 FRET peptide (Aedans)EKELAELRESTS(Dabcyl)K-amide
[2] = target: T2, FasL1 FRET peptide …
[3] = target: T3, Peptide D7 …
[4] = target: T4, 29CD23 FRET peptide …
[5] = target: T4, 29CD23 FRET peptide …; test: FRET peptide cleavage kinetics, non-linear fit of rate against substrate concentration (the filing calls it analysis of affinities)
[6] = target: T2, FasL1 FRET peptide …; test: as above

Row | Molecule | FRET peptide cleavage in similar screening assays [1] | Relative proteolytic Activity [2] | FRET peptide cleavage activity [3] | other results
1 | MMP 13 (Chemicon, Cat. #CC068) | shown in similar screening assays to be a suitable substrate for the metalloproteases MMP7 and MMP 13 |  |  | 
2 | MMP7 (Chemicon, Cat. #CC1059) | shown in similar screening assays to be a suitable substrate for the metalloproteases MMP7 and MMP 13 |  |  | 
3 | B1 |  | * | Neither Aggrecanase-1 nor Aggrecanase-2 showed any activity on this peptide | 
4 | B2 |  | ***** | Neither Aggrecanase-1 nor Aggrecanase-2 showed any activity on this peptide | Relative proteolytic Activity [4]: *****; Vm [4]: 0.6 rfu/min; Vm [2]: 2.8 rfu/min; Km [5]: 40 µM; Km [6]: 80 µM

— patent US20030166037
